Data as given in patent publication US20250313612A1 (Adimab, published 2025).

Assays:
[1] = molecular target: RSV F protein of recombinant mKate-RSV, subtype B (18537) (Respiratory syncytial virus subtype B …, UniProt P13843 26-574); experiment: cell-based or functional assay
[2] = molecular target: RSV F protein of recombinant mKate-RSV, subtype A (strain A2) (Respiratory syncytial virus subtype A …, UniProt P03420 26-574); experiment: cell-based or functional assay
[3] = molecular target: T1, RSV F ectodomain stabilized in the postfusion conformation (F ΔFP), subtype A (Respiratory syncytial virus subtype A, UniProt P03420 26-109; P03420 147-524); experiment: BLI, IgG on AHQ sensor, 100 nM antigen
T1 construct: extracellular domain; trimer; furin-cleaved; also called Postfusion subtype A

[4] = molecular target: T2, RSV F ectodomain stabilized in the postfusion conformation (F ΔFP), subtype B (Respiratory syncytial virus subtype B, UniProt P13843 26-109; P13843 147-524); experiment: BLI, IgG on AHQ sensor, 100 nM antigen
T2 construct: extracellular domain; trimer; also called Postfusion subtype B; postF subtype B

| Binder | Neut IC50 subtype B [1] | Neut IC50 subtype A [2] | Kd [3] | Kd [4] |
| --- | --- | --- | --- | --- |
| ADI-14443 (antibody, V domains shown, full-length IgG (yeast-expressed); also called Antibody Number 6; Ab# 6) VH: QVQLVQSGTEVKKPGSSVKVSCKASGGTFGSYAVIWVRQAPGQGLEWMGHFIPVFATTNKAQKFQGRLTLSTDESTGTVYMELSSLRSEDTAVYFCATKRYCSDPSCHGLWYFDLWGRGTLVTVSS VL: DIQLTQSPLSLPVTPGEPASISCRSSQSLLDSDDGNTYLDWYLQKPGQSPQVLIYMLSYRASGVPDRFSGSGSGTDFTLEISRVEAEDVGVYYCMQRVEFPYTFGQGTKLEIK | 0.063 µg/mL | 0.047 µg/mL | 0.19 nM | 0.137 nM |
| ADI-14471 (antibody, V domains shown, full-length IgG (yeast-expressed); also called Antibody Number 34; Ab# 34) VH: QVQLVQSGAEVKKPGSSVKVSCKASGGTFGSYAVIWVRQAPGQGLEWMGHIIPVFGTINNAQKFQGRLTLSADESTGTVYMGLSSLRSDDTAVYFCATKRYCSDPSCHGLWYFDLWGRGTLVTVSS VL: DIRLTQSPLSLPVTPGEPASISCRSSQSLLDSDDGNTYLDWYLQKPGQSPQVLIYMLSYRASGVPDRFSGSGSGTDFTLKISRVEAEDVGVYYCMQRAEFPYTFGQGTKLEIK | 0.116 µg/mL | 0.096 µg/mL | 0.212 nM | 0.15 nM |
| ADI-14499 (antibody, V domains shown, full-length IgG (yeast-expressed); also called Antibody Number 60; Ab# 60) VH: QVQLVQSGPALVKPTQTLTLTCTFSGFSLTTRGVGVGWIRQTPGKALECLGFIYWDDDMNYNPSLRGRVTITRDTSKNQVVLTMTNMAPVDTGTYYCVHSDLYDSSGYYLYYFDYWGQGTLVTVSS VL: DIRLTQSPSSLSASVGDRVTITCRASQPIASYLNWYQQKPGKAPKLLIYAASNLQSGVPSTFSGRGSGTDFSLTISTLQPEDIATYYCQQSYTSPYTFGQGTKVEIK | > 10 µg/mL | > 10 µg/mL | 0.415 nM | 2.99 nM |
| ADI-14492 (antibody, V domains shown, full-length IgG (yeast-expressed); also called Antibody Number 53; Ab# 53) VH: EVQLVESGGGLVRPGGSLGLSCSASGFIFSNAWMTWVRQAPGKGLEWVGHIKSKVNGGTTAYGAPVKGRFTISRDDSRNTLFLQMNSLKTEDTGVYYCTTGPPYQYFDDSGYSVVDYWGQGTLVTVSS VL: QSVVTQPPSASGTPGQRVTISCSGSDSNIGTDYFYWYQQLPGSAPKLLIYGSNQRPSGVPDRFSGSQSGSAASLAISGLRSEDDADYYCAAWDDSLGGPVFGGGTKVTVL | 0.681 µg/mL | 0.204 µg/mL | 0.166 nM | 0.111 nM |
| ADI-14497 (antibody, V domains shown, full-length IgG (yeast-expressed); also called Antibody Number 58; Ab# 58) VH: QITLKESGPTLVKPTQTLTLTCTFSGFSLTTRGVGVGWIRQPPGKALEFLGFIHWDDDKTYSPSLRRRLTITKDTSNNEVVLTMTNMDPVDTATYYCVHSDLYDSGGYYLYYFDYWGQGTLVTVSS VL: EIVMTQSPSSLSASVGDRVTITCRASQPIPSYVNWYQQRPGKAPKLLIYAASNLQSGVSSKFSGRGFGTDFTLTIDTLQPEDFATYYCQQVYTSPYTFGQGTKLEIK | 0.116 µg/mL | 0.115 µg/mL | 0.358 nM | 4.82 nM |
| ADI-14512 (antibody, V domains shown, full-length IgG (yeast-expressed); also called Antibody Number 73; Ab# 73) VH: EVQLVESGAEVKKPGSSVKVSCKVVGGSFSNYGISWVRQAPGQGPEWMGGIIPAFKTAKYAKKFEDRVTITADESTSTAYMEVSGLRSDDTALYYCARPERDFGHLKWLRSPFDYWGQGTLVTVSS VL: ETTLTQSPATLSVSPGERVTLSCRASQGVSINLAWYQQKPGQAPRLLIYGASTRATDIPARFSGSGSGTDFTLTISSLQSEDFAVYYCQQYNDWPPQLTFGPGTKVEIK | > 10 µg/mL | > 10 µg/mL | 2.67 nM | 0.587 nM |
| ADI-14510 (antibody, V domains shown, full-length IgG (yeast-expressed); also called Antibody Number 71; Ab# 71) VH: QVQLQQWGAEVKKPGSSVKVSCKASGVALSSVAISWVRQAPGQGLEWMGGILPGFDKVRFAQEFENRATLTADTARDIAYMELSGLRSDDTAVYYCAIIDPQDCTSASCFWVNWLDPWGQGTLVTVSS VL: ETTLTQSPGTLTVSPGERATLSCRASQSIIRNNLAWYQQKPGQAPRLLIYAASNRATDIPDRFSGSGSGTDFTLTISRLEAQDFAVYFCQQYGTSPITFGQGTKVEIK | > 10 µg/mL | > 10 µg/mL | 0.783 nM | 0.619 nM |
| ADI-14495 (antibody, V domains shown, full-length IgG (yeast-expressed); also called Antibody Number 56; Ab# 56) VH: QITLKESGPTLVKPTQTLTLTCSFSGFSLTTRGVGVGWVRQPPGKALECLGFVYWDDDKRYSPSLRSRLTISEDTSKNQVVLTMTNMDPLDTATYYCVHSDLYDRGGYYLFYFDYWGQGTLVTVSS VL: DIVLTQSPSSLSASVGDRVTITCRASQPIASYLNWYQHKPGKAPKLLIYAASSLQSGVSSTFSGRGSGTDFTLTITALQPEDFAIYYCQQSYTFPYTFGQGTKVDIK | 17.4 µg/mL | 0.864 µg/mL | 0.367 nM | 1.71 nM |
| ADI-14504 (antibody, V domains shown, full-length IgG (yeast-expressed); also called Antibody Number 65; Ab# 65) VH: EVQLVESGGGLVQPGGSLRLSCAASGFPFSRYNMNWVRQAPGKGLEWVSYISSGSRSIYYADSVKGRFTISRDNAKNSLYLQMNSLRAEDTAVYYCARDLSGSPAYSGSWVWGQGTLVTVSS VL: not shown | 13.4 µg/mL | 2.81 µg/mL | 0.583 nM | 0.52 nM |
| ADI-14506 (antibody, V domains shown, full-length IgG (yeast-expressed); also called Antibody Number 67; Ab# 67) VH: QVQLVQSGAEVKKPGSSVKVSCKVAGGSFSNYAIAWLRQAPGQGLEWMGGIIPAFNRAMYARKFQDRVTITAYASTTTAYLDITGLRSEDTALYYCARPAGDFGDLKWVRSPFDYWGQGTLITVSS VL: DIVMTQTPGTLSVSPGERATLSCRASQDVGINLAWYQQKPGQAPRLLIYGASTRATDVPAKFSGSGSGTDFTLTISSLQSEDFGVYYCQEYNDWPPQLSFGPGTKVDIK | 6.25 µg/mL | > 10 µg/mL | 13.1 nM | 24.5 nM |
| ADI-14511 (antibody, V domains shown, full-length IgG (yeast-expressed); also called Antibody Number 72; Ab# 72) VH: EVQLLESGAEVKKPGSSVKVSCKVAGGTFSDYAISWVRQAPGQGLEYLGGIIPAFKRAMYPRKFQDRVTITADESTSTAYMELRGLRSEDTALYYCARPAGDFGDLKWLRSPFDYWGQGTLVTVSS VL: DIVLTQSPATLSVSPGERATLSCRASEGVGINLAWYQQKPGQAPRLLIYGASTRATDIPARFSGSGSGTDFTLTISSLQSEDFAVYYCQQYNDWPPQLTFGPGTKVDIK | 7.04 µg/mL | > 10 µg/mL | 0.988 nM | 1.25 nM |
| ADI-14498 (antibody, V domains shown, full-length IgG (yeast-expressed); also called Antibody Number 59; Ab# 59) VH: EVQLVESGPTLVKPTQTLTLTCTFSGFSLTTRGMGVGWIRQPPGRSLEWLAVIYWDGDVRYSPSLKGRLTITKDTPKNQVVLTMTNMDPVDTATYYCVHSDLYDRNAYYLHYFDFWGQGTLVTVSS VL: DIRLTQSPSSLSASVGDRVTITCRASQIIASYLNWYQQKPGKAPNLLIFAASSLQSGVPSRFRGSGSGTDFTLTISSLQPEDFATYYCQQSYSIPYTFGQGTKLEIK | > 10 µg/mL | > 10 µg/mL | 0.412 nM | 2.27 nM |
| ADI-14461 (antibody, V domains shown, full-length IgG (yeast-expressed); also called Antibody Number 24; Ab# 24) VH: EVQLVESGGGVVQPGRSLRLSCAASGFTFSDHAMYWVRQAPGKGLEWVALISFDGRNIYYADSVKGRFTISRDNSKNTLYLQMNSLRAEDTAVYYCARDQWLVPDYWGQGTLVTVSS VL: LPVLTQPASVSGSPGQSITISCTGTSSDVGGYNYVSWYQQHPGNAPKLMIYEVSKRPSGVPDRFSGFKSGNTASLTVSGLQAEDEADYYCSSYAGSNSVFGTGTKLTVL | 0.152 µg/mL | 0.129 µg/mL | 0.231 nM | 0.156 nM |
| ADI-14494 (antibody, V domains shown, full-length IgG (yeast-expressed); also called Antibody Number 55; Ab# 55) VH: EVQLVESGGGVVQPGRSLRLSCAASGFTFSDHAMYWVRQAPGKGLEWVALISFDGRNIYYADSVKGRFTISRDNSKNTLYLQMNSLRAEDTAVYYCARDQWLVPDYWGQGTLVTVSS VL: QSALTQPASVSGSPGQSITISCTGTSSDVGGYNYVSWYQQHPGNAPKLMIYEVSKRPSGVPDRFSGFKSGNTASLTVSGLQAEDEADYYCSSYAGSNSVFGTGTKVTVL | 0.089 µg/mL | 0.084 µg/mL | 0.24 nM | 0.155 nM |
| ADI-14525 (antibody, V domains shown, full-length IgG (yeast-expressed); also called Antibody Number 85; Ab# 85) VH: EVQLLESGGGVVQPGRSLRLSCTASGFTFSDHAMYWVRQAPGKGLEWVALISFDGRNIYYADSVKGRFTISRDNSKNTLYLQMNSLRAEDTAVYYCARDQWLVPDYWGQGTLVTVSS VL: QSVLIQPASVSGSPGQSITISCTGTSSDVGGYNYVSWYQQHPGNAPKLMIYEVSKRPSGVPDRFSGFKSGNTASLTVSGLQAEDEADYYCSSYAGSNSVFGTGTQLTVL | 0.108 µg/mL | 0.135 µg/mL | 0.23 nM | 0.149 nM |
| ADI-14500 (antibody, V domains shown, full-length IgG (yeast-expressed); also called Antibody Number 61; Ab# 61) VH: EVQLLESGGGLVKPGGSLRLSCAASGFIFNNAWMTWVRQAPGRGLEWVGRIKTNADGGTADYSTPVKGRFAISRDDSTNTLYLQMNSLKTEDTAVYYCTTGPPYKYSDSTGYSVVDYWGQGTLVTVSS VL: SYELTQPPSASGTPGQRVTISCSGSSSNIGSNYVYWYQQLPGTAPKLLIYSTNQRPSGVPDRFSGSQSGTSASLAISGLRSEDEADYYCAAWDDRLSGPVFGGGTQLTVL | 0.552 µg/mL | 0.415 µg/mL | 0.714 nM | 0.127 nM |
| ADI-14507 (antibody, V domains shown, full-length IgG (yeast-expressed); also called Antibody Number 68; Ab# 68) VH: QITLKESGPTLVKPTQTLTLTCTLSGFSLSTPRMGVGWIRQPPGKALEWLALIDWDDDRRYSPSLKTRLTITKDTSKNQVVLRMTDMDPVDTGTYYCVHSDVYTTGGYYLYYFDYWGQGTLVTVSS VL: DIQVTQSPSSLSASVGDRVTITCRASQTIPSYLNWYQHKPGKAPQLLIYAASNLRSGVPPRFRGSGSGTDFTLTVSSLQPEDFATYFCQQSYSSPYTFGQGTKLEIK | 0.173 µg/mL | 0.319 µg/mL | 0.266 nM | 0.413 nM |
